Reference: patent US20040110231A1 (Takeda / Millennium, published 2004)
Where no end group is shown, it is not given here. [ ]: non-standard residue; d: D form. Met(O) = CS(=O)CC[C@H](N)C(=O)O

Experiments:
human GPR8 = human GPR8 (human, UniProt P48146 1-333); assay: cell-based or functional assay
human GPR7 [1] = target: T1, human GPR7 (human, UniProt P48145 1-328); assay: cell-based or functional assay
T1 sequence: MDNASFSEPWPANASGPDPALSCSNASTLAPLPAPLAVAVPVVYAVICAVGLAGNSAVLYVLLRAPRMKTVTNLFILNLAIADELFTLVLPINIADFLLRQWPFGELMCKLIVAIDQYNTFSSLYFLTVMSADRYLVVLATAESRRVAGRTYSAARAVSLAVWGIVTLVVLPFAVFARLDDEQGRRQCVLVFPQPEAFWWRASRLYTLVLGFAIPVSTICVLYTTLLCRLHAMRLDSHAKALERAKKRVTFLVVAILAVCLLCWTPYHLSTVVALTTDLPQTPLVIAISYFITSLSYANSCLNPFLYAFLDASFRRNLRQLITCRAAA

human GPR7 [2] = target: T1, human GPR7; assay: cell-based or functional assay; remark: listed apart in the source
human GPR7 [3] = target: T1, human GPR7; assay: competition with [125I-Tyr10]-hGPR8L (1-23) as tracer, membrane fraction of human GPR7-expressing CHO cells
Description: The thus prepared cell membrane fraction was diluted in various concentrations with an assay buffer (25 mM Tris-HCl, 5 mM EDTA, 0.05% CHAPS (3-[(3-choramidopropyl)dimethylammonio]-1-propanesulfonate), 0.1% BSA, 0.5 mM PMSF, 1 μg/ml pepstatin, 20 μg/ml leupeptin and 4 μg/ml E-64, pH 7.4). Then, a 200 μl aliquot of the dilution was dispensed into a propylene-made testing tube (Falcon 2053). In order to assay for the total binding, 2 μl of DMSO and 2 μl of 8 nM [¹²⁵I-Tyr¹⁰]-hGPR8L (1-23) was added to the membrane fraction solution. Also, the non-specific binding was assayed by adding 2 μl of a DMSO solution of 1 mM hGPR8L (1-23) and 2 μl of 8 nM [¹²⁵I-Tyr¹⁰]-hGPR8L (1-23) to the membrane fraction solution. After reacting at 25° C. for 75 minutes, the reaction solution was suction-filtrated through a polyethyleneimine-treated Whatman glass filter (GF-F), and the filter was washed twice with ˜1.5 ml of a wash buffer (25 mM Tris-HCl, 5 mM EDTA, 0.05% CHAPS, 0.1% BSA, pH 7.4). After the filtration, the residual radioactivity remained on the filter paper was measured with a γ-counter, and the specific binding was estimated by subtracting the non-specific binding from the total binding.
It could also be verified that the binding inhibition of [¹²⁵I-Tyr¹⁰]-hGPR8L (1-23) against the human GPR7-expressed CHO cell membrane fraction was noted as described above, when rat and mouse homologs (SEQ ID NO:73 and SEQ ID NO:91) to hGPR8L (1-23) and porcine, rat and mouse homologs (SEQ ID NO:57, SEQ ID NO:74 and SEQ ID NO:92) to hGPR8L (1-30).

Chain of human GPR8 (P48146 whole entry): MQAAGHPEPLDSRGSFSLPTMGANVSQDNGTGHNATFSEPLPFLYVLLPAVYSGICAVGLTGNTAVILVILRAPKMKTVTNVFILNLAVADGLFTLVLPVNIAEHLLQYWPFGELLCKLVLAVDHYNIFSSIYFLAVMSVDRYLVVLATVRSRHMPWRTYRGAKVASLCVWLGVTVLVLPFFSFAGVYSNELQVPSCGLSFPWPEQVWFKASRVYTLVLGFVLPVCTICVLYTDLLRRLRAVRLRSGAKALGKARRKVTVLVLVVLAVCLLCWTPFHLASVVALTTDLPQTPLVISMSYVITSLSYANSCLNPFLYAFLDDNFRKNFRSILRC

Ac-YKHVASPRYHTVGRAAGLLMGL [[N-Acetyl-Tyr2]-human GPR8 ligand (2-23)]
GTPγ S binding promoting activity (EC50 nM) (human GPR8): 7200 nM
GTPγS-Binding promoting activity (EC50 nM) (human GPR7 [1]): 7000 nM

RYHTVGRAAGLLMGL [human GPR8 ligand (9-23)]
GTPγ S binding promoting activity (EC50 nM) (human GPR8): 4200 nM
GTPγS-Binding promoting activity (EC50 nM) (human GPR7 [1]): > 10000 nM

{3‑indolepropanoyl}-YKHVASPRYHTVGRAAGLLMGL [[N-3-Indolepropanyl-Tyr2]-human GPR8 ligand (2-23)]
GTPγ S binding promoting activity (EC50 nM) (human GPR8): 5 nM
GTPγS-Binding promoting activity (EC50 nM) (human GPR7 [1]): 0.85 nM

WYKHVASPRYHTVGRAAGLLMGL [human GPR8 ligand (1-23)]
intracellular cAMP production suppressing activity (IC50) (human GPR7 [2]): 0.025 nM
GTPγS-Binding promoting activity (EC50 nM) (human GPR7 [1]): 0.74 nM

WYKHVASPRYHTVGRAAGLLMGLRRSPYLW [human GPR8 ligand (1-30)]
GTPγS-Binding promoting activity (EC50 nM) (human GPR7 [1]): 0.67 nM

B1: porcine homolog to hGPR8L (1-30) (peptide)
peptide: WYKHTASPRYHTVGRAAGLLMGLRRSPYMW
notes: also called porcine homologue of the GPR8 ligand peptide (30 residues)
binding result (human GPR7 [3]): binds

B2: mouse homolog to hGPR8L (1-30) (peptide)
peptide: WYKHVASPRYHTVGRASGLLMGLRRSPYQW
notes: also called mouse homologue of the GPR8 ligand peptide (30 residues)
binding result (human GPR7 [3]): binds

B3: rat homolog to hGPR8L (1-30) (peptide)
peptide: WYKHVASPRYHTVGRASGLLMGLRRSPYLW
notes: also called rat homologue of the GPR8 ligand peptide (30 residues)
binding result (human GPR7 [3]): binds

XYKHVASPRYHTVGRAAGLLMGL (D-Trp at position 1) [[D-Trp1]-human GPR8 ligand (1-23)]
GTPγ S binding promoting activity (EC50 nM) (human GPR8): 7.1 nM
GTPγS-Binding promoting activity (EC50 nM) (human GPR7 [1]): 2.3 nM

WYKHVASPRYHTVGRAAG [human GPR8 ligand (1-18)]
GTPγ S binding promoting activity (EC50 nM) (human GPR8): > 10000 nM
GTPγS-Binding promoting activity (EC50 nM) (human GPR7 [1]): 6200 nM

B4: mouse GPR8 ligand (1-23) (peptide)
peptide: WYKHVASPRYHTVGRASGLLMGL
notes: also called mouse homolog to hGPR8L (1-23)
binding result (human GPR7 [3]): binds

B5: rat GPR8 ligand (1-23) (peptide)
peptide: WYKHVASPRYHTVGRASGLLMGL
notes: also called rat homolog to hGPR8L (1-23)
binding result (human GPR7 [3]): binds

WYKHTASPRYHTVGRAAGLLMGL [porcine GPR8 ligand (1-23)]
GTPγ S binding promoting activity (EC50 nM) (human GPR8): 1.5 nM
GTPγS-Binding promoting activity (EC50 nM) (human GPR7 [1]): 0.35 nM

WYKHVASPRYHTVGRAAGLLXGL (Met (O) (methionine sulfoxide) at position 21) [oxidized human GPR8 ligand (1-23)]
GTPγ S binding promoting activity (EC50 nM) (human GPR8): 1.4 nM
GTPγS-Binding promoting activity (EC50 nM) (human GPR7 [1]): 1.6 nM

WYKHTASPRYHTVGRAAGLL[Met(O)]GL [oxidized porcine GPR8 ligand (1-23)]
GTPγ S binding promoting activity (EC50 nM) (human GPR8): 0.73 nM
GTPγS-Binding promoting activity (EC50 nM) (human GPR7 [1]): 1.2 nM

YKHVASPRYHTVGRAAGLLMGL [human GPR8 ligand (2-23)]
GTPγ S binding promoting activity (EC50 nM) (human GPR8): 3900 nM
GTPγS-Binding promoting activity (EC50 nM) (human GPR7 [1]): 7410 nM

XYKHVASPRYHTVGRAAGLLMGL (Nα-acetyl on Trp1) [[Nα-Acetyl-Trp1]-human GPR8 ligand (1-23)]
GTPγ S binding promoting activity (EC50 nM) (human GPR8): 14 nM
GTPγS-Binding promoting activity (EC50 nM) (human GPR7 [1]): 1.5 nM

WYKHVASPRYHTVGRAAGLL [human GPR8 ligand (1-20)]
GTPγ S binding promoting activity (EC50 nM) (human GPR8): 0.86 nM
GTPγS-Binding promoting activity (EC50 nM) (human GPR7 [1]): 0.88 nM

XYKHVASPRYHTVGRAAGLLMGL (N-terminal Fmoc (N-9-fluorenylmethoxycarbonyl) on Trp1) [Fmoc-human GPR8 ligand (1-23)]
GTPγ S binding promoting activity (EC50 nM) (human GPR8): 240 nM
GTPγS-Binding promoting activity (EC50 nM) (human GPR7 [1]): 6.6 nM

HVASPRYHTVGRAAGLLMGL [human GPR8 ligand (4-23)]
GTPγ S binding promoting activity (EC50 nM) (human GPR8): 6700 nM
GTPγS-Binding promoting activity (EC50 nM) (human GPR7 [1]): > 10000 nM

WYKHVASPRYHTVGRAAGL [human GPR8 ligand (1-19)]
GTPγ S binding promoting activity (EC50 nM) (human GPR8): 1000 nM
GTPγS-Binding promoting activity (EC50 nM) (human GPR7 [1]): 84 nM
